The record followed here is patent US20260042850A1 (LOCKBODY THERAPEUTICS, published 2026).

For experiment [1], the target named is T1, cynomolgus monkey C-MET on stably transfected CHO-K1 cells (cynomolgus monkey, UniProt A0M8R7 25-1381 (Papio anubis entry)).
T1 construct: also called cycMET; cyno C-MET+ CHO-K1 cells
The experiment can be described thus: flow cytometry on cyno C-MET-transfected CHO-K1 cells, IgG4(S228P), MFI. Here is the method:
FIG. 8A-FIG. 8C. Flow cytometric binding to human and cyno C-MET+ CHO-K1 cells for library-derived and primary designer leads. Humanized h224G11, Grafted clone (Graft) and clones 08G07, MH7, MH7-1, MH7-2, MH7-3 in human IgG4(S228P) format were examined for specific binding on human C-MET-transfected (FIG. 8A), cyno C-MET-transfected (FIG. 8B) and untransfected (FIG. 8C) CHO-K1 cells. IgGs were tested at concentrations ranging from 500-0.08 nM. Concentration-dependent binding was observed against both human and cyno cell lines for all C-MET-specific antibodies but not isotype control IgG4.
(§1) Purified IgGs were tested in FACs for binding to human and cyno C-MET expressed on CHO-K1 stable cell lines and CHO-K1 wild-type cells. The IgG samples were titrated in three-fold serial dilutions starting at 500 nM to 0.08 nM. Binding of IgGs was detected with a mouse anti-human IgG conjugated to FITC. Results were analyzed by examining the Mean Fluorescence Intensity (MFI) of 10000 cells per sample in the BL-1 channel detector of a flow cytometer (Attune™ NxT Acoustic Focusing Cytometer, Invitrogen/ThermoFisher Scientific).
In general terms: In flow cytometry, cells or beads pass a laser one at a time.

The target of experiment [2] is T2, human C-MET human Fc tagged recombinant protein (human, UniProt P08581 25-932).
T2 construct: also called human C-MET-Fc; huCMET
T2 sequence (P08581 25-932 limits assumed): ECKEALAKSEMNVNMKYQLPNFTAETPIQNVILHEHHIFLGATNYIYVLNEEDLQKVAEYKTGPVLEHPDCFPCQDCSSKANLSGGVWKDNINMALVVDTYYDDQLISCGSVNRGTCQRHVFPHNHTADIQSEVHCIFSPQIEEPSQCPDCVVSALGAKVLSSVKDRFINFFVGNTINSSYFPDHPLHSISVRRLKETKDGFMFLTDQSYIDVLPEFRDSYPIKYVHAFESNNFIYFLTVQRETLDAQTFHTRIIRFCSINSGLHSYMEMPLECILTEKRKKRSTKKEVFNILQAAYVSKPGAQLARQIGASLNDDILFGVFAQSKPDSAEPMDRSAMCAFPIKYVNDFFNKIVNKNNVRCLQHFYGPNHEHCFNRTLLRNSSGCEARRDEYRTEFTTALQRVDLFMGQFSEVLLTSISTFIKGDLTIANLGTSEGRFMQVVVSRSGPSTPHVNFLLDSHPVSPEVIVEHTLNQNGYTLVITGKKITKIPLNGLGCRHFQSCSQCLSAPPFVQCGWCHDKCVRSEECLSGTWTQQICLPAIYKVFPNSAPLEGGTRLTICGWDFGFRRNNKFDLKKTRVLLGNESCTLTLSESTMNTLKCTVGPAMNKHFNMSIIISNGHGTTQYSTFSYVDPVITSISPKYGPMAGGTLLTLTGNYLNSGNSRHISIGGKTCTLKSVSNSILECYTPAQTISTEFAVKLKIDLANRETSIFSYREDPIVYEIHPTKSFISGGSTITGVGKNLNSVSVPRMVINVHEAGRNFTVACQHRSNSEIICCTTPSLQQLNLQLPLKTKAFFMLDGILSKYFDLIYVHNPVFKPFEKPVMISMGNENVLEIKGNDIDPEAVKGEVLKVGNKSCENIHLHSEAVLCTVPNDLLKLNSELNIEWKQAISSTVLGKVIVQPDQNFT
The experiment can be described thus: direct titration ELISA on coated human C-MET-Fc, IgG4(S228P), OD 450 nm. From the text: (§2) FIG. 6A-FIG. 6B. Direct titration ELISA for IgG binding to human and cyno C-MET-Fc proteins. Humanized h224G11, Grafted clone (Graft) and clones 08G07, MH7, MH7-1, MH7-2, MH7-3 in human IgG4(S228P) format were titrated (in nM) in a direct binding ELISA against human (FIG. 6A) and cyno (FIG. 6B) C-MET-Fc proteins.
(§3) Binding and cross-reactivity of the lead panel to the recombinant proteins was initially assessed by binding ELISA. The human C-MET human Fc tagged recombinant protein and the cynomolgus monkey C-MET human Fc tagged recombinant protein were coated to the surface of MaxiSorp™ flat-bottom 96 well plate at 1 μg/ml. The purified IgG samples were titrated in two fold serial dilutions starting from 500 nM to 0.98 nM and allowed to bind to the coated antigens. The Fabs were detected using mouse anti-c-myc antibody followed by donkey anti-mouse IgG conjugated to horseradish peroxidase. The IgGs were detected using the mouse anti-human IgG conjugated to horseradish peroxidase. Binding signals were visualized with 3,3′,5,5′-Tetramethylbenzidine Substrate Solution (TMB) and the absorbance measured at 450 nm. IgG binding analysis via ELISA on negatively charged biomolecular surfaces to calculate off-target binding and PK risk were performed as previously described (see Avery et al., 2018, MAbs 10 (2), 244-255).
For orientation: An ELISA detects its analyte on a solid surface through an enzyme-linked reagent.

The target in experiment [3] is T3, cynomolgus monkey C-MET human Fc tagged recombinant protein (cynomolgus monkey, UniProt A0M8R7 25-932 (Papio anubis entry), limits assumed).
T3 construct: also called cyno C-MET-Fc; cyCMET
T3 sequence (A0M8R7 25-932 S170N/I621T limits assumed): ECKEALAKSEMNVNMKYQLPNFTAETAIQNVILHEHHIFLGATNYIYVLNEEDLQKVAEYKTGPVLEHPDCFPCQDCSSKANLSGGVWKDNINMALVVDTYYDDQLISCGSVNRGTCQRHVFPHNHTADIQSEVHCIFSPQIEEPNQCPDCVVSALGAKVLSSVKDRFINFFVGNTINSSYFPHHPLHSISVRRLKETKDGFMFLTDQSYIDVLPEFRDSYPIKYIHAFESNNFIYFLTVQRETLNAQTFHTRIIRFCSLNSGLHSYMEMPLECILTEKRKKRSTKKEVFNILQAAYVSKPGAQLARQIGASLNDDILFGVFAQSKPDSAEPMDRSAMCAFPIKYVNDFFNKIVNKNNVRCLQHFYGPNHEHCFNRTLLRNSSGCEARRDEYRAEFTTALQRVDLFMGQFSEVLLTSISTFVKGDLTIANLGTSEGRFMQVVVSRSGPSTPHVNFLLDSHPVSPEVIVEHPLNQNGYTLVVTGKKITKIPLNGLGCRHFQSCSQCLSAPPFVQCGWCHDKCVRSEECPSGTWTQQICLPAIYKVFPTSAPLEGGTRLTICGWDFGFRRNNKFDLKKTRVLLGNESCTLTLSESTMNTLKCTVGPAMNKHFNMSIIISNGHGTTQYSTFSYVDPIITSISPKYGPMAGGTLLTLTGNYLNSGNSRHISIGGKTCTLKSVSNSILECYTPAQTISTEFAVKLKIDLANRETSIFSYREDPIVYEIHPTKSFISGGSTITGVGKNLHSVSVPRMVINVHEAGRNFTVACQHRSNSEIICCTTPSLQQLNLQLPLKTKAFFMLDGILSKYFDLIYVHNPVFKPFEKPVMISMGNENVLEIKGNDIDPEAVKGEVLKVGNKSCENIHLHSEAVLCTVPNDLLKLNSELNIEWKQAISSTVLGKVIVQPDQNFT
Description: direct titration ELISA on coated cyno C-MET-Fc, IgG4(S228P), OD 450 nm.
Description: as §2, §3

The target of the next experiment is T4, Insulin.
T4 construct: Coated surface of the polyreactivity (development risk) ELISA
T4 sequence (P01308 25-54, chain 1 of 2): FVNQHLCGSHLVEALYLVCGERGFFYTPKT
T4 sequence (P01308 90-110, chain 2 of 2): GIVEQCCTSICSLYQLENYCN
Description: polyreactivity ELISA on insulin. Set-up: scale not given here.

Experiment [4] addresses T5, human C-MET on stably transfected CHO-K1 cells (human, UniProt P08581 25-1390).
T5 construct: also called hucMET; human C-MET+ CHO-K1 cells
Description: flow cytometry, C-MET CHO-K1 cells. How it is done: as §1
(§4) Antibodies to C-MET were analysed for concentration-dependent binding at the cell surface via flow cytometry. CHO-K1 cells were stably transfected with either human or cyno C-MET full-length cDNAs. Anti-C-MET IgGs and an isotype control IgG4(S228P) were then all tested in IgG4(S228P) format, over a concentration range of 500-0.08 nM for binding to human (FIG. 5A) and cyno (FIG. 5B) CHO-K1 cells.

Experiment [5] has as its target T1, cynomolgus monkey C-MET on stably …. Description: flow cytometry, C-MET CHO-K1 cells. How it is done:
as §1, §4

For experiment [6], the target named is T6, cynomolgus monkey C-MET His tag, monomeric (cynomolgus monkey, UniProt A0M8R7 25-932 (Papio anubis entry)).
T6 construct: also called monomeric cyno C-MET; cyCMET
T6 sequence (A0M8R7 25-932 S170N/I621T): as the sequence (A0M8R7 25-932 S170N/I621T limits assumed) above
Description: SPR Biacore, IgG captured, monomeric C-MET-His analyte. Here is the method: (§5) Affinity (KD) of purified IgGs was determined via SPR with antigen in-solution on a Biacore® 3000 (GE). A mouse anti-human antibody (CH1 specific) was immobilized on a CM5 Sensor Chip to a level of 2000 RU in acetate buffer at pH 4.5 using amine coupling following the Wizard instructions for two channels. One channel was used for background signal correction. The standard running buffer HBS-EP pH 7.4 was used. Regeneration was performed with a single injection of 10 μl of 10 mM Glycine at pH 1.5 at 20 μl/minute. IgG samples were injected for 2 minutes at 50 nM at 30 μl/min followed by and off-rate of 60 seconds. The monomeric antigen (human C-MET His tagged or cynomolgus monkey C-MET His tag) was injected in two fold serial dilutions from 100 nM down to 6 nM, for 2 minutes at 30 μl/min followed by an off-rate of 300 seconds. The obtained sensorgrams were analysed using the Biacore® 3000 evaluation (BIAevaluation) software. The KD was calculated by simultaneous fitting of the association and dissociation phases to a 1:1 Langmuir binding model.
Background: Surface plasmon resonance follows binding to a sensor surface in real time, without labels.

Experiment [7] deals with T7, human C-MET His tagged, monomeric (human, UniProt P08581 25-932).
T7 construct: also called monomeric human C-MET; biotinylated human C-MET-His
T7 sequence (P08581 25-932): as the sequence (P08581 25-932 limits assumed) above
The description is as above. How it is done: as §5

Experiment [8] addresses T6, cynomolgus monkey C-MET His tag, …. Description: SPR Biacore. Here is the method:
as §5

Experiment [9] concerns the target T7, human C-MET His tagged, monomeric. Description: SPR Biacore. How it is done:
as §5

The target in experiment [10] is T5, human C-MET on stably transfected …. Description: flow cytometry, C-MET CHO-K1 cells. Here is the method:
as §1
This is another data set of the same source.

Experiment [11] addresses T1, cynomolgus monkey C-MET on stably …. The experiment can be described thus: flow cytometry, C-MET CHO-K1 cells. How it is done:
as §1
This is another data set of the same source.

Experiment [12] addresses T7, human C-MET His tagged, monomeric. Description: Alphascreen epitope competition in solution: varied IgG4(S228P) against 224G11 IgG4(S228P) binding to biotinylated human C-MET, CPS (crosstalk-corrected). How it is done: FIG. 7. Epitope competition analysis of IgG4(S228P) proteins in Alphascreen. Anti-Humanized h224G11, Grafted clone (Graft) and clones 08G07, MH7, MH7-1, MH7-2, MH7-3 in human IgG4(S228P) format were titrated (in nM) in an epitope competition assay using Alphascreen technology. In this assay, library-derived and designer IgGs were analysed for their retention of the parental 224G11 epitope by competing for 224G11 IgG4(S228P) binding to human C-MET protein, in solution.
The AlphaScreen assay (Perkin Elmer) was performed in a 25 μl final volume in 384-well white microtiter plates (Greiner). The reaction buffer contained 1×PBS pH 7.3 (Oxoid, Cat. nr. BR0014G) and 0.05% (v/v) Tween® 20 (Sigma, Cat. nr. P9416). Purified IgG samples were titrated in three fold serial dilutions starting at 50 nM final concentration and incubated with biotinylated human C-MET-His (Acrobiosystems) at 1 nM final concentration for 20 minutes at room temperature. The parental IgG and the anti-human IgG4(S228P) Acceptor beads at were added and the mix was incubated for 1 hour at room temperature. Followed by addition of the Streptavidin Donor beads and incubation for 30 minutes at room temperature. The emission of light was measured in the EnVision multilabel plate reader (Perkin Elmer) and analysed using the EnVision manager software. Values were reported as Counts Per Second (CPS) and corrected for crosstalk. […]

T5 sequence (P08581 25-1390 limits assumed): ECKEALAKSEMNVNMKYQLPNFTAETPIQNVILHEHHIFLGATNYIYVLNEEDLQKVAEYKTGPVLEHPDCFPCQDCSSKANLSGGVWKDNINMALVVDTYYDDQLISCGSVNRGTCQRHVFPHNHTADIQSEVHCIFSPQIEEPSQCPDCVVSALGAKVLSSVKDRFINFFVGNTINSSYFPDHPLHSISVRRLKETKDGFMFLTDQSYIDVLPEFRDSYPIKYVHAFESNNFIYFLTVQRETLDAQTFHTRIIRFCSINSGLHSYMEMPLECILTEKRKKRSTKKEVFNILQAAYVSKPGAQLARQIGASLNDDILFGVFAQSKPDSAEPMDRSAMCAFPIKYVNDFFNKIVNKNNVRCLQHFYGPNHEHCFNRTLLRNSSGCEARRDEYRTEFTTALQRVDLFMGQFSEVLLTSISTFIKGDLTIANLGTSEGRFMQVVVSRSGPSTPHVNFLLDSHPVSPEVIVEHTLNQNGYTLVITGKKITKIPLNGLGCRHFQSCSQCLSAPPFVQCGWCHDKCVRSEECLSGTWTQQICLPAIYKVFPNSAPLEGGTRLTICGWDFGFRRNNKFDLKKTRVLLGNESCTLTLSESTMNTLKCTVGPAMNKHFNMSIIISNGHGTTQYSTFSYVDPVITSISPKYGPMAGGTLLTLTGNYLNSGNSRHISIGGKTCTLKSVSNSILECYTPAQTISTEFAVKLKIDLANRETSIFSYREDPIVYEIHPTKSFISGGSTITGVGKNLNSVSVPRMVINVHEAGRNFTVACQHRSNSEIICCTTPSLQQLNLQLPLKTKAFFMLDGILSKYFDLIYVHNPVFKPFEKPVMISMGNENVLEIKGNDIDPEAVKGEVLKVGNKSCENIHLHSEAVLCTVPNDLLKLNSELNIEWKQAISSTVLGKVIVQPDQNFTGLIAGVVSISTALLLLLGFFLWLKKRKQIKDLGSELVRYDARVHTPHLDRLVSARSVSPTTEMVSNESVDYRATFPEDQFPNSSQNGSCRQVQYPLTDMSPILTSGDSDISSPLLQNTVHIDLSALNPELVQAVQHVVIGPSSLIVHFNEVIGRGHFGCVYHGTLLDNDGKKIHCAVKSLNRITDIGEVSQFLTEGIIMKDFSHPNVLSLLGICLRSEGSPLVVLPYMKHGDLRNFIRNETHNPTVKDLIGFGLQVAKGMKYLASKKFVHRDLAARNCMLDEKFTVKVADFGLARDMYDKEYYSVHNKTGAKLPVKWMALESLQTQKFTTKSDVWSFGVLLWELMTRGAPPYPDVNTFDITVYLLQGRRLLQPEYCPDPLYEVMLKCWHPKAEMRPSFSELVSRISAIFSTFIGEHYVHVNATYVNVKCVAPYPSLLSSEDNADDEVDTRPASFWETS
T1 sequence (A0M8R7 25-1381 S170N/I621T limits assumed): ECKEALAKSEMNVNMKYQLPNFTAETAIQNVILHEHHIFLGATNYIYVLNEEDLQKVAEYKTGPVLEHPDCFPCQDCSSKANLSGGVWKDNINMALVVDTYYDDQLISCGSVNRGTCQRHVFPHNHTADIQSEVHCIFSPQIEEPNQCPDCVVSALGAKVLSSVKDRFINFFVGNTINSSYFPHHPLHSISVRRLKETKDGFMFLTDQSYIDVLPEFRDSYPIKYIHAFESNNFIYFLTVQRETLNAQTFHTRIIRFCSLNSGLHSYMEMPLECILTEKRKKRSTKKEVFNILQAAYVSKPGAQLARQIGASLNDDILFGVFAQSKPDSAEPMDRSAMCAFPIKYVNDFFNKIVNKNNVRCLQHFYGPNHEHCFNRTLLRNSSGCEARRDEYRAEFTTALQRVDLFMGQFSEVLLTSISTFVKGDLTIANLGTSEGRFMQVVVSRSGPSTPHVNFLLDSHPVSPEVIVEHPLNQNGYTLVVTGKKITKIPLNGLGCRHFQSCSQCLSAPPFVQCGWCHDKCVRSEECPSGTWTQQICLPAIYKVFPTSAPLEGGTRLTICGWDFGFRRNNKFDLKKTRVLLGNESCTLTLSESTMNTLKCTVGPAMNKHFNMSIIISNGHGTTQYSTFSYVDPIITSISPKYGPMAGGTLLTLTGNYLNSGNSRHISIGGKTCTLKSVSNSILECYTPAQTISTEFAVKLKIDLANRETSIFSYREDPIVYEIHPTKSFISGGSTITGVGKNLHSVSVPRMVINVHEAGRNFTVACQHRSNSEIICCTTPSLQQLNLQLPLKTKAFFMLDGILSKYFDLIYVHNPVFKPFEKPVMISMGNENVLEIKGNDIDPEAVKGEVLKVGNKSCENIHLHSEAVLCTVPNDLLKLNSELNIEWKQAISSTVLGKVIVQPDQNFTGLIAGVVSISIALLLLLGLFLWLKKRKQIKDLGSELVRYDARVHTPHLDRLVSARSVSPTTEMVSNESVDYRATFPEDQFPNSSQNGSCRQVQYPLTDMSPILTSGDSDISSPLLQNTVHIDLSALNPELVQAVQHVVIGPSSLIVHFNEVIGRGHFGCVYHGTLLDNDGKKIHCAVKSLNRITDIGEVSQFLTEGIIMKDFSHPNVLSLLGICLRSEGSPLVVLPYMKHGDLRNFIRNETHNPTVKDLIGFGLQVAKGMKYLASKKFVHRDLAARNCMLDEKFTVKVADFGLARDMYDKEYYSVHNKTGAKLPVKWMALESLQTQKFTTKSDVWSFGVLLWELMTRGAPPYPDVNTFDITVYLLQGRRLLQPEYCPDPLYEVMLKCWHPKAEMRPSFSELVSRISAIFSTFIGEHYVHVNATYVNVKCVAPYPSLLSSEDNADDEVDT

B1: MH7-2 (antibody, human IgG4, V domains shown)
VH: QVQLVQSGAEVKKPGASVKVSCKASGYTFTSYTMHWVRQAPGQGLEWMGIINPSGGSTSYAQKFQGRVTMTRDTSTSTVYMELSSLRSEDTAVYYCARQEITTEFDYWGQGTLVTVSS
VL: EIVLTQSPGTLSLSPGERATLSCRASQSVSSYANSYLHWYQQKPGQAPRLLIYRGSTRETGIPDRFSGSGSGTDFTLTISRLEPEDFAVYYCQQSKESPLTFGGGTKVEIK
As to B1, the “EC50 (read off the curve)” value in experiment [1] is around 0.5 nM; in experiment [2], around 0.3 nM; in [3] it was around 0.2 nM. In the experiment with Insulin, this molecule returned a reactivity score of 1. The “maximum MFI, fold over Isotype IgG4 background” value (“maximum MFI, fold” for short) in experiment [4] and in [5] was above 10 fold throughout. The Kd in experiment [6] amounted to 0.87 nM; in experiment [7], 2.12 nM. For the same molecule, the off-rate (koff) in experiment [6] came to 0.000159 s⁻¹; in experiment [7] it was 0.000198 s⁻¹. Moreover, the kon in [6] was 183000 M⁻¹ s⁻¹; in experiment [7], 93200 M⁻¹ s⁻¹.

B2: MH8 (antibody, IgG4, V domains shown)
VH: QVQLVQSGAEVKKPGASVKVSCKASGYTFTSYTMHWVRQAPGQGLEWMGIINPSGGSTSYAQKFQGRVTMTRDTSTSTVYMELSSLRSEDTAVYYCARQEITTEFDYWGQGTLVTVSS
VL: EIVLTQSPGTLSLSPGERATLSCRASQSVSSYAQSYLHWYQQKPGQAPRLLIYRGSTRETGIPDRFSGSGSGTDFTLTISRLEPEDFAVYYCQQSGSSPLTFGGGTKVEIK
On to B2, for which the “fold loss of KD against MH7” value in experiment [8] and in [9] was 10 to 20 fold in each case. For the same molecule, the EC50 in experiment [10] came out at 1.24 nM; in [11], 0.57 nM. For the same molecule, the “maximum MFI, fold” value in [4] and in experiment [5] was above 10 fold throughout. The Kd in [6] came out at 1.3 nM; in [7], 2.2 nM. The koff in experiment [6] came to 0.00021 s⁻¹; in experiment [7], 0.00015 s⁻¹. Besides, the kon was 160000 M⁻¹ s⁻¹ in experiment [6] and 66000 M⁻¹ s⁻¹ in experiment [7].

B3: MH9 (antibody, IgG4, V domains shown)
VH: QVQLVQSGAEVKKPGASVKVSCKASGYTFTSYTMHWVRQAPGQGLEWMGIINPSGGSTSYAQKFQGRVTMTRDTSTSTVYMELSSLRSEDTAVYYCARQEITTEFDYWGQGTLVTVSS
VL: EIVLTQSPGTLSLSPGERATLSCRASQSVSSYAQSYLHWYQQKPGQAPRLLIYRGSTRETGIPDRFSGSGSGTDFTLTISRLEPEDFAVYYCQQYGSSPLTFGGGTKVEIK
Regarding B3, the “fold loss of KD against MH7” value in experiment [8] and in experiment [9] was 10 to 20 fold in each case. Also, the EC50 in experiment [10] was determined as 1.23 nM; in [11] it was 0.65 nM. The “maximum MFI, fold” value in experiment [4] and in [5] was above 10 fold each time. The values for the Kd in experiment [6] and in experiment [7] were 4.3 nM and 6.6 nM, respectively. The koff is 0.00048 s⁻¹ in experiment [6] and 0.00039 s⁻¹ in experiment [7]. The kon in experiment [6] came out at 110000 M⁻¹ s⁻¹; in experiment [7], 59000 M⁻¹ s⁻¹.

B4: h224G11 (humanized 224G11) (antibody, human IgG4, V domains shown)
VH: QVQLVQSGAEVKKPGASVKVSCKASGYIFTAYTMHWVRQAPGQGLEWMGWIKPNNGLANYAQKFQGRVTMTRDTSISTAYMELSRLRSDDTAVYYCARSEITTEFDYWGQGTLVTVSS
VL: DIVMTQSPDSLAVSLGERATINCKSSESVDSYANSFLHWYQQKPGQPPKLLIYRASTRESGVPDRFSGSGSGTDFTLTISSLQAEDVAVYYCQQSKEDPLTFGGGTKVEIK
notes: also called Humanized h224G11; 224G11 IgG4(S228P)
In the case of B4, the entries for the “EC50 (read off the curve)” value in experiment [1], in experiment [2] and in experiment [3] were around 0.7 nM, around 0.3 nM and around 0.2 nM, respectively. Moreover, the “IC50 (read off the curve)” value in experiment [12] was around 0.2 nM. In addition, the reactivity score with Insulin was found to be 1. Besides, the EC50 in experiment [10] came out at 6.83 nM; in [11], 0.82 nM. The “maximum MFI, fold” value in experiment [4] and in [5] was above 10 fold in each case. For the same molecule, the Kd came out at 0.46 nM in experiment [6] and 0.47 nM in [7]. Besides, the off-rate constant (koff) is 0.00011 s⁻¹ in experiment [6] and 4.2e-05 s⁻¹ in experiment [7]. Besides, the kon is 250000 M⁻¹ s⁻¹ in experiment [6] and 90000 M⁻¹ s⁻¹ in [7].

The EC50 (read off the curve) is the midpoint of the concentration-response curve. In general, Kd refers to a measure of binding affinity in units of concentration. In general, koff refers to the first-order rate constant of dissociation. In general, kon refers to a measure of how fast the partners come together. A word on the EC50: it is the midpoint of the concentration-response curve.
